Measurements published in patent US12679878B2, “CRF2 receptor agonists and their use in therapy” (SANOFI, priority 2020, dated 2026).
Starred links: 1 amine or outer side, 2 acyl side, 3 side chain; linkers in the order of their positions; H or OH if unused. Non-standard residues stand in square brackets, D forms with d. Groups on a side chain read outwards from the residue. No end group written: not given here. *: point of attachment. C18 diacid = O=C(O)CCCCCCCCCCCCCCCCC(=O)*; γGlu = O=C(O)[C@H](CCC(=O)[*:2])N[*:1]; AEEA = NCCOCCOCC(=O)O; Aib = CC(C)(N)C(=O)O

Molecular target: T1, CRF1R receptor (anti-target) (UniProt P34998 24-415, limits assumed)
T1 sequence (looked up): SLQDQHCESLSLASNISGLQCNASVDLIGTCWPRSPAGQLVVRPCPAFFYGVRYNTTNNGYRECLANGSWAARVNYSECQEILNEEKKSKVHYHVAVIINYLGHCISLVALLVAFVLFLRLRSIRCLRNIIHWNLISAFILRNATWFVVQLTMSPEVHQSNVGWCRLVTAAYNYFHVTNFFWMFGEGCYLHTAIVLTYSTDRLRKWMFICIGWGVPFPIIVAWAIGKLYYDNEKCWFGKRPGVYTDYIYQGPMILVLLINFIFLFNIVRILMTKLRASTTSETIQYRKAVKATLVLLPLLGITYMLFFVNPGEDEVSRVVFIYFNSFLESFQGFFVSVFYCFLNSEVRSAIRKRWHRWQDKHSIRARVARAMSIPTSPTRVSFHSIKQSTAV
Experiment: cell-based or functional assay

B1: peptide of SEQ ID NO: 148 (peptide)
peptide: IVLSLDVPIGLK([AEEA-AEEA-γGlu-C18 diacid])QILLKQERQKK[Aib]REQAETNKRILERV-NH2
modifications: N-terminus assumed
SMILES: CC[C@H](C)[C@H](N)C(=O)N[C@H](C(=O)N[C@@H](CC(C)C)C(=O)N[C@@H](CO)C(=O)N[C@@H](CC(C)C)C(=O)N[C@@H](CC(=O)O)C(=O)N[C@H](C(=O)N1CCC[C@H]1C(=O)N[C@H](C(=O)NCC(=O)N[C@@H](CC(C)C)C(=O)N[C@@H](CCCCNC(=O)COCCOCCNC(=O)COCCOCCNC(=O)CC[C@H](NC(=O)CCCCCCCCCCCCCCCCC(=O)O)C(=O)O)C(=O)N[C@@H](CCC(N)=O)C(=O)N[C@H](C(=O)N[C@@H](CC(C)C)C(=O)N[C@@H](CC(C)C)C(=O)N[C@@H](CCCCN)C(=O)N[C@@H](CCC(N)=O)C(=O)N[C@@H](CCC(=O)O)C(=O)N[C@@H](CCCNC(=N)N)C(=O)N[C@@H](CCC(N)=O)C(=O)N[C@@H](CCCCN)C(=O)N[C@@H](CCCCN)C(=O)NC(C)(C)C(=O)N[C@@H](CCCNC(=N)N)C(=O)N[C@@H](CCC(=O)O)C(=O)N[C@@H](CCC(N)=O)C(=O)N[C@@H](C)C(=O)N[C@@H](CCC(=O)O)C(=O)N[C@H](C(=O)N[C@@H](CC(N)=O)C(=O)N[C@@H](CCCCN)C(=O)N[C@@H](CCCNC(=N)N)C(=O)N[C@H](C(=O)N[C@@H](CC(C)C)C(=O)N[C@@H](CCC(=O)O)C(=O)N[C@@H](CCCNC(=N)N)C(=O)N[C@H](C(N)=O)C(C)C)[C@@H](C)CC)[C@@H](C)O)[C@@H](C)CC)[C@@H](C)CC)C(C)C)C(C)C
- EC50 [nM] 0% HSA (cAMP, HTRF): > 100 nM
- Emax (%) (100% = Sauvagine at 100 nM): 2.6%

B2: peptide of SEQ ID NO: 125 (peptide)
peptide: IVLSLDVPIKLK([AEEA-AEEA-γGlu-C18 diacid])QILLEQARQK[Aib]QREQAEKNKRILERV-NH2
modifications: N-terminus assumed
SMILES: CC[C@H](C)[C@H](N)C(=O)N[C@H](C(=O)N[C@@H](CC(C)C)C(=O)N[C@@H](CO)C(=O)N[C@@H](CC(C)C)C(=O)N[C@@H](CC(=O)O)C(=O)N[C@H](C(=O)N1CCC[C@H]1C(=O)N[C@H](C(=O)N[C@@H](CCCCN)C(=O)N[C@@H](CC(C)C)C(=O)N[C@@H](CCCCNC(=O)COCCOCCNC(=O)COCCOCCNC(=O)CC[C@H](NC(=O)CCCCCCCCCCCCCCCCC(=O)O)C(=O)O)C(=O)N[C@@H](CCC(N)=O)C(=O)N[C@H](C(=O)N[C@@H](CC(C)C)C(=O)N[C@@H](CC(C)C)C(=O)N[C@@H](CCC(=O)O)C(=O)N[C@@H](CCC(N)=O)C(=O)N[C@@H](C)C(=O)N[C@@H](CCCNC(=N)N)C(=O)N[C@@H](CCC(N)=O)C(=O)N[C@@H](CCCCN)C(=O)NC(C)(C)C(=O)N[C@@H](CCC(N)=O)C(=O)N[C@@H](CCCNC(=N)N)C(=O)N[C@@H](CCC(=O)O)C(=O)N[C@@H](CCC(N)=O)C(=O)N[C@@H](C)C(=O)N[C@@H](CCC(=O)O)C(=O)N[C@@H](CCCCN)C(=O)N[C@@H](CC(N)=O)C(=O)N[C@@H](CCCCN)C(=O)N[C@@H](CCCNC(=N)N)C(=O)N[C@H](C(=O)N[C@@H](CC(C)C)C(=O)N[C@@H](CCC(=O)O)C(=O)N[C@@H](CCCNC(=N)N)C(=O)N[C@H](C(N)=O)C(C)C)[C@@H](C)CC)[C@@H](C)CC)[C@@H](C)CC)C(C)C)C(C)C
- EC50 [nM] 0% HSA (cAMP, HTRF): > 100 nM
- Emax (%) (100% = Sauvagine at 100 nM): 17.7%

B3: peptide of SEQ ID NO: 149 (peptide)
peptide: IVLSLD[dV]PIKLK([AEEA-AEEA-γGlu-C18 diacid])QILLKQERQKK[Aib]REQAETNKRILERV-NH2
modifications: N-terminus assumed
SMILES: CC[C@H](C)[C@H](N)C(=O)N[C@H](C(=O)N[C@@H](CC(C)C)C(=O)N[C@@H](CO)C(=O)N[C@@H](CC(C)C)C(=O)N[C@@H](CC(=O)O)C(=O)N[C@@H](C(=O)N1CCC[C@H]1C(=O)N[C@H](C(=O)N[C@@H](CCCCN)C(=O)N[C@@H](CC(C)C)C(=O)N[C@@H](CCCCNC(=O)COCCOCCNC(=O)COCCOCCNC(=O)CC[C@H](NC(=O)CCCCCCCCCCCCCCCCC(=O)O)C(=O)O)C(=O)N[C@@H](CCC(N)=O)C(=O)N[C@H](C(=O)N[C@@H](CC(C)C)C(=O)N[C@@H](CC(C)C)C(=O)N[C@@H](CCCCN)C(=O)N[C@@H](CCC(N)=O)C(=O)N[C@@H](CCC(=O)O)C(=O)N[C@@H](CCCNC(=N)N)C(=O)N[C@@H](CCC(N)=O)C(=O)N[C@@H](CCCCN)C(=O)N[C@@H](CCCCN)C(=O)NC(C)(C)C(=O)N[C@@H](CCCNC(=N)N)C(=O)N[C@@H](CCC(=O)O)C(=O)N[C@@H](CCC(N)=O)C(=O)N[C@@H](C)C(=O)N[C@@H](CCC(=O)O)C(=O)N[C@H](C(=O)N[C@@H](CC(N)=O)C(=O)N[C@@H](CCCCN)C(=O)N[C@@H](CCCNC(=N)N)C(=O)N[C@H](C(=O)N[C@@H](CC(C)C)C(=O)N[C@@H](CCC(=O)O)C(=O)N[C@@H](CCCNC(=N)N)C(=O)N[C@H](C(N)=O)C(C)C)[C@@H](C)CC)[C@@H](C)O)[C@@H](C)CC)[C@@H](C)CC)C(C)C)C(C)C
- EC50 [nM] 0% HSA (cAMP, HTRF): > 100 nM
- Emax (%) (100% = Sauvagine at 100 nM): 6.6%

B4: peptide of SEQ ID NO: 150 (peptide)
peptide: IVLSLD[dV]PIGLK([AEEA-AEEA-γGlu-C18 diacid])QILLKQERQKK[Aib]RQQAETNKRILERV-NH2
modifications: N-terminus assumed
SMILES: CC[C@H](C)[C@H](N)C(=O)N[C@H](C(=O)N[C@@H](CC(C)C)C(=O)N[C@@H](CO)C(=O)N[C@@H](CC(C)C)C(=O)N[C@@H](CC(=O)O)C(=O)N[C@@H](C(=O)N1CCC[C@H]1C(=O)N[C@H](C(=O)NCC(=O)N[C@@H](CC(C)C)C(=O)N[C@@H](CCCCNC(=O)COCCOCCNC(=O)COCCOCCNC(=O)CC[C@H](NC(=O)CCCCCCCCCCCCCCCCC(=O)O)C(=O)O)C(=O)N[C@@H](CCC(N)=O)C(=O)N[C@H](C(=O)N[C@@H](CC(C)C)C(=O)N[C@@H](CC(C)C)C(=O)N[C@@H](CCCCN)C(=O)N[C@@H](CCC(N)=O)C(=O)N[C@@H](CCC(=O)O)C(=O)N[C@@H](CCCNC(=N)N)C(=O)N[C@@H](CCC(N)=O)C(=O)N[C@@H](CCCCN)C(=O)N[C@@H](CCCCN)C(=O)NC(C)(C)C(=O)N[C@@H](CCCNC(=N)N)C(=O)N[C@@H](CCC(N)=O)C(=O)N[C@@H](CCC(N)=O)C(=O)N[C@@H](C)C(=O)N[C@@H](CCC(=O)O)C(=O)N[C@H](C(=O)N[C@@H](CC(N)=O)C(=O)N[C@@H](CCCCN)C(=O)N[C@@H](CCCNC(=N)N)C(=O)N[C@H](C(=O)N[C@@H](CC(C)C)C(=O)N[C@@H](CCC(=O)O)C(=O)N[C@@H](CCCNC(=N)N)C(=O)N[C@H](C(N)=O)C(C)C)[C@@H](C)CC)[C@@H](C)O)[C@@H](C)CC)[C@@H](C)CC)C(C)C)C(C)C
- EC50 [nM] 0% HSA (cAMP, HTRF): > 100 nM
- Emax (%) (100% = Sauvagine at 100 nM): 7.2%

B5: peptide of SEQ ID NO: 134 (peptide)
peptide: IVLSLD[dV]PIKLK([AEEA-AEEA-γGlu-C18 diacid])QILLKQERQK[Aib]QREKAEKNKQILAQV-NH2
modifications: N-terminus assumed
SMILES: CC[C@H](C)[C@H](N)C(=O)N[C@H](C(=O)N[C@@H](CC(C)C)C(=O)N[C@@H](CO)C(=O)N[C@@H](CC(C)C)C(=O)N[C@@H](CC(=O)O)C(=O)N[C@@H](C(=O)N1CCC[C@H]1C(=O)N[C@H](C(=O)N[C@@H](CCCCN)C(=O)N[C@@H](CC(C)C)C(=O)N[C@@H](CCCCNC(=O)COCCOCCNC(=O)COCCOCCNC(=O)CC[C@H](NC(=O)CCCCCCCCCCCCCCCCC(=O)O)C(=O)O)C(=O)N[C@@H](CCC(N)=O)C(=O)N[C@H](C(=O)N[C@@H](CC(C)C)C(=O)N[C@@H](CC(C)C)C(=O)N[C@@H](CCCCN)C(=O)N[C@@H](CCC(N)=O)C(=O)N[C@@H](CCC(=O)O)C(=O)N[C@@H](CCCNC(=N)N)C(=O)N[C@@H](CCC(N)=O)C(=O)N[C@@H](CCCCN)C(=O)NC(C)(C)C(=O)N[C@@H](CCC(N)=O)C(=O)N[C@@H](CCCNC(=N)N)C(=O)N[C@@H](CCC(=O)O)C(=O)N[C@@H](CCCCN)C(=O)N[C@@H](C)C(=O)N[C@@H](CCC(=O)O)C(=O)N[C@@H](CCCCN)C(=O)N[C@@H](CC(N)=O)C(=O)N[C@@H](CCCCN)C(=O)N[C@@H](CCC(N)=O)C(=O)N[C@H](C(=O)N[C@@H](CC(C)C)C(=O)N[C@@H](C)C(=O)N[C@@H](CCC(N)=O)C(=O)N[C@H](C(N)=O)C(C)C)[C@@H](C)CC)[C@@H](C)CC)[C@@H](C)CC)C(C)C)C(C)C
- EC50 [nM] 0% HSA (cAMP, HTRF): > 100 nM
- Emax (%) (100% = Sauvagine at 100 nM): -8.6%

B6: peptide of SEQ ID NO: 126 (peptide)
peptide: IVLSLD[dV]PIKLK([AEEA-AEEA-γGlu-C18 diacid])QILLEQAKQK[Aib]QRAQAEKNKRILERV-NH2
modifications: N-terminus assumed
SMILES: CC[C@H](C)[C@H](N)C(=O)N[C@H](C(=O)N[C@@H](CC(C)C)C(=O)N[C@@H](CO)C(=O)N[C@@H](CC(C)C)C(=O)N[C@@H](CC(=O)O)C(=O)N[C@@H](C(=O)N1CCC[C@H]1C(=O)N[C@H](C(=O)N[C@@H](CCCCN)C(=O)N[C@@H](CC(C)C)C(=O)N[C@@H](CCCCNC(=O)COCCOCCNC(=O)COCCOCCNC(=O)CC[C@H](NC(=O)CCCCCCCCCCCCCCCCC(=O)O)C(=O)O)C(=O)N[C@@H](CCC(N)=O)C(=O)N[C@H](C(=O)N[C@@H](CC(C)C)C(=O)N[C@@H](CC(C)C)C(=O)N[C@@H](CCC(=O)O)C(=O)N[C@@H](CCC(N)=O)C(=O)N[C@@H](C)C(=O)N[C@@H](CCCCN)C(=O)N[C@@H](CCC(N)=O)C(=O)N[C@@H](CCCCN)C(=O)NC(C)(C)C(=O)N[C@@H](CCC(N)=O)C(=O)N[C@@H](CCCNC(=N)N)C(=O)N[C@@H](C)C(=O)N[C@@H](CCC(N)=O)C(=O)N[C@@H](C)C(=O)N[C@@H](CCC(=O)O)C(=O)N[C@@H](CCCCN)C(=O)N[C@@H](CC(N)=O)C(=O)N[C@@H](CCCCN)C(=O)N[C@@H](CCCNC(=N)N)C(=O)N[C@H](C(=O)N[C@@H](CC(C)C)C(=O)N[C@@H](CCC(=O)O)C(=O)N[C@@H](CCCNC(=N)N)C(=O)N[C@H](C(N)=O)C(C)C)[C@@H](C)CC)[C@@H](C)CC)[C@@H](C)CC)C(C)C)C(C)C
- EC50 [nM] 0% HSA (cAMP, HTRF): > 100 nM
- Emax (%) (100% = Sauvagine at 100 nM): 36.5%
